Biological target: Alternative Complex III from Flavobacterium johnsoniae (Flavobacterium johnsoniae (endogenous, ATCC 17061 strain UW101))
Assay: cryo-EM structure

For “aa3-type cytochrome c oxidase from Flavobacterium johnsoniae (complex)”, the stoichiometry N (ACIII:cyt aa3) was 1.

Reference: article PMC6004266
